Data from US20180155451A1 (published 2018).

T1: FcγRIIb (human, UniProt P31994 43-217)
T1 construct: extracellular domain; Soluble extracellular domain with C-terminal His tag, expressed in FreeStyle293 cells; also called FcgRIIb; 2b; not shown: C-terminal His tag
T1 sequence (looked up): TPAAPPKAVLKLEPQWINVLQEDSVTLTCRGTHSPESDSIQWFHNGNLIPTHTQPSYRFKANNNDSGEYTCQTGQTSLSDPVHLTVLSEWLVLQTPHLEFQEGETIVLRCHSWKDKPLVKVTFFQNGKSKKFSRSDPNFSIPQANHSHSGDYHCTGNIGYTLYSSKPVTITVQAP

T2: FcγRIIa H (FcγRIIa type H, His at position 131), extracellular domain with C-terminal His tag (human, UniProt P12318 34-217)
T2 construct: extracellular domain; Expressed in FreeStyle293 cells; analyte in the Biacore assay; also called FcgRIIa H; 2aH; not shown: His tag at the C terminus
T2 sequence (looked up): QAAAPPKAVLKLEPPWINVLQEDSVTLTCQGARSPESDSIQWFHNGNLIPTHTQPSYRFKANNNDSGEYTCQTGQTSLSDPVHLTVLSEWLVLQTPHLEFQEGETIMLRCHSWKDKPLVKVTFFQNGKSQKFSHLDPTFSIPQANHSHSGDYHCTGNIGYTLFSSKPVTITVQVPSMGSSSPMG

T3: FcγRIIb, extracellular domain with C-terminal His tag (human, UniProt P31994 43-217)
T3 construct: extracellular domain; Expressed in FreeStyle293 cells; analyte in the Biacore assay; also called FcgRIIb; 2b; not shown: His tag at the C terminus
T3 sequence (looked up): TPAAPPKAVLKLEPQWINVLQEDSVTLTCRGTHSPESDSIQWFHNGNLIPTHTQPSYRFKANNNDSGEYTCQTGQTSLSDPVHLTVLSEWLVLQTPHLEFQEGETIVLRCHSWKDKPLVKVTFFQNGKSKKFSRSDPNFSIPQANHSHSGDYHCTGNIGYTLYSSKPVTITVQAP

T4: FcγRIIa H (human, UniProt P12318 34-217)
T4 construct: extracellular domain; Soluble extracellular domain with C-terminal His tag, expressed in FreeStyle293 cells; also called FcgRIIa H; 2aH; not shown: C-terminal His tag
T4 sequence (looked up): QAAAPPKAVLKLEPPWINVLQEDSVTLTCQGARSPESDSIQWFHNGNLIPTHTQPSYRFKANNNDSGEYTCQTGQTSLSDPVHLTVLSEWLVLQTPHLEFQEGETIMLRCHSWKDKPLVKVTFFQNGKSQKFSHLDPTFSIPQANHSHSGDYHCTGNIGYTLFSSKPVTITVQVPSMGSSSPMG

B1: GpH7-A5/GpH7-B3 variant G237_05P/GpL16-k0 (antibody, human IgG1, kappa)
heavy 1: not shown
heavy 2: not shown
light: DIVMTQSPLSLPVTPGEPASISCQASESLVHSNRNTYLHWYLQKPGQSPQLLIYKVSNRFSGVPDRFSGSGSGTDFTLKISRVEAEDVGVYYCSQNTHVPPTFGQGTKVEIERTVAAPSVFIFPPSDEQLKSGTASVVCLLNNFYPREAKVQWKVDNALQSGNSQESVTEQDSKDSTYSLSSTLTLSKADYEKHKVYACEVTHQGLSSPVTKSFNRGEC
notes: Heterodimerized anti-glypican-3 IgG1; alteration in the GpH7-B3 chain only; also called He Ab
B2: GpH7-A5/GpH7-B3 variant Y300_13S/GpL16-k0 (antibody, human IgG1, kappa)
heavy 1: not shown
heavy 2: not shown
light: DIVMTQSPLSLPVTPGEPASISCQASESLVHSNRNTYLHWYLQKPGQSPQLLIYKVSNRFSGVPDRFSGSGSGTDFTLKISRVEAEDVGVYYCSQNTHVPPTFGQGTKVEIERTVAAPSVFIFPPSDEQLKSGTASVVCLLNNFYPREAKVQWKVDNALQSGNSQESVTEQDSKDSTYSLSSTLTLSKADYEKHKVYACEVTHQGLSSPVTKSFNRGEC
notes: He Ab; IgG1; mutation in one H chain only; also called He Ab
B3: GpH7-A5/GpH7-B3 variant G237_19Q/GpL16-k0 (antibody, human IgG1, kappa)
heavy 1: not shown
heavy 2: not shown
light: DIVMTQSPLSLPVTPGEPASISCQASESLVHSNRNTYLHWYLQKPGQSPQLLIYKVSNRFSGVPDRFSGSGSGTDFTLKISRVEAEDVGVYYCSQNTHVPPTFGQGTKVEIERTVAAPSVFIFPPSDEQLKSGTASVVCLLNNFYPREAKVQWKVDNALQSGNSQESVTEQDSKDSTYSLSSTLTLSKADYEKHKVYACEVTHQGLSSPVTKSFNRGEC
notes: as for B1
B4: GpH7-A5/GpH7-B3 variant G236_09D/GpL16-k0 (antibody, human IgG1, kappa)
heavy 1: not shown
heavy 2: not shown
light: DIVMTQSPLSLPVTPGEPASISCQASESLVHSNRNTYLHWYLQKPGQSPQLLIYKVSNRFSGVPDRFSGSGSGTDFTLKISRVEAEDVGVYYCSQNTHVPPTFGQGTKVEIERTVAAPSVFIFPPSDEQLKSGTASVVCLLNNFYPREAKVQWKVDNALQSGNSQESVTEQDSKDSTYSLSSTLTLSKADYEKHKVYACEVTHQGLSSPVTKSFNRGEC
notes: as for B1
B5: GpH7-A5/GpH7-B3 variant Y300_14T/GpL16-k0 (antibody, human IgG1, kappa)
heavy 1: not shown
heavy 2: not shown
light: DIVMTQSPLSLPVTPGEPASISCQASESLVHSNRNTYLHWYLQKPGQSPQLLIYKVSNRFSGVPDRFSGSGSGTDFTLKISRVEAEDVGVYYCSQNTHVPPTFGQGTKVEIERTVAAPSVFIFPPSDEQLKSGTASVVCLLNNFYPREAKVQWKVDNALQSGNSQESVTEQDSKDSTYSLSSTLTLSKADYEKHKVYACEVTHQGLSSPVTKSFNRGEC
notes: as for B2
B6: GpH7-A5/GpH7-B3 variant G237_15Y/GpL16-k0 (antibody, human IgG1, kappa)
heavy 1: not shown
heavy 2: not shown
light: DIVMTQSPLSLPVTPGEPASISCQASESLVHSNRNTYLHWYLQKPGQSPQLLIYKVSNRFSGVPDRFSGSGSGTDFTLKISRVEAEDVGVYYCSQNTHVPPTFGQGTKVEIERTVAAPSVFIFPPSDEQLKSGTASVVCLLNNFYPREAKVQWKVDNALQSGNSQESVTEQDSKDSTYSLSSTLTLSKADYEKHKVYACEVTHQGLSSPVTKSFNRGEC
notes: as for B1
B7: GpH7-A5/GpH7-B3 variant S324_19Q/GpL16-k0 (antibody, human IgG1, kappa)
heavy 1: not shown
heavy 2: not shown
light: DIVMTQSPLSLPVTPGEPASISCQASESLVHSNRNTYLHWYLQKPGQSPQLLIYKVSNRFSGVPDRFSGSGSGTDFTLKISRVEAEDVGVYYCSQNTHVPPTFGQGTKVEIERTVAAPSVFIFPPSDEQLKSGTASVVCLLNNFYPREAKVQWKVDNALQSGNSQESVTEQDSKDSTYSLSSTLTLSKADYEKHKVYACEVTHQGLSSPVTKSFNRGEC
notes: as for B2
B8: GpH7-A5/GpH7-B3 variant S324_18N/GpL16-k0 (antibody, human IgG1, kappa)
heavy 1: not shown
heavy 2: not shown
light: DIVMTQSPLSLPVTPGEPASISCQASESLVHSNRNTYLHWYLQKPGQSPQLLIYKVSNRFSGVPDRFSGSGSGTDFTLKISRVEAEDVGVYYCSQNTHVPPTFGQGTKVEIERTVAAPSVFIFPPSDEQLKSGTASVVCLLNNFYPREAKVQWKVDNALQSGNSQESVTEQDSKDSTYSLSSTLTLSKADYEKHKVYACEVTHQGLSSPVTKSFNRGEC
notes: as for B2

What was measured:
FcγRIIb = target: T1, FcγRIIb; test: SPR (Biacore), antibody captured, FcγR as analyte; relative to HeCon Ab
Method: (§1) The heterodimerized antibodies He Abs in which one of the H chains was introduced with an alteration were assayed for their binding activities to each activating FcγR and inhibitory FcγR according to the method described in Example 4. […] The activating FcγRs in FIGS. 26, 27, 28, and 29 are FcγRIa, FcγRIIa (R), FcγRIIa (H), and FcγRIIIa, respectively.
(§2) Analysis of interaction between objective antibody and the FcγR was carried out using Biacore T100 (GE Healthcare). HBS-EP+ (GE Healthcare) was used as the running buffer, and the measurement temperature was set to 25° C. Chips produced by immobilizing the antigen peptide by the amine coupling method to a Series S Sencor Chip CM5 (GE Healthcare), or alternatively, chips produced by allowing preliminarily biotinylated antigen peptides to interact with and immobilize onto a Series S Sensor Chip SA (certified) (GE Healthcare) were used. Antibodies of interest were captured onto an antigen peptide-immobilized chip, and allowed to interact to each FcγR diluted with running buffer. To regenerate and repeatedly use the chip, the antibodies captured on the chip were washed off by reacting 10 mM glycine-HCl, pH 1.5.

[1] = target: T2, FcγRIIa H (FcγRIIa type H, His at …); test: SPR Biacore; He/Con_2aH divided by He/Con_2b (reference: FcgRIIb)
[2] = target: T2, FcγRIIa H (FcγRIIa type H, His at …); test: SPR Biacore, captured antibody, FcgR analyte; GpH7-A5/GpH7-B3/GpL16-k0 = 100
[3] = target: T3, FcγRIIb, extracellular domain with …; test: as above
FcγRIIa H = target: T4, FcγRIIa H; test: SPR (Biacore), antibody captured, FcγR as analyte; relative to HeCon Ab
Method: as §1, §2

Binder | He/Con_2b (FcγRIIb) | He_2aH/2b (IIaH/IIb) [1] | He/Con_2aH [2] | He/Con_2b [3] | He/Con_2aH (FcγRIIa H)
B1 | 24.6 % of GpH7-A5/GpH7-B3/GpL16-k0 (=100) | – | – | – | –
B2 | – | 1.64 | 88.1 % of HeCon Ab | 53.9 % of HeCon Ab | –
B3 | 108 % of GpH7-A5/GpH7-B3/GpL16-k0 (=100) | – | – | – | 26.5 % of GpH7-A5/GpH7-B3/GpL16-k0 (=100)
B4 | 167 % of GpH7-A5/GpH7-B3/GpL16-k0 (=100) | – | – | – | 89.8 % of GpH7-A5/GpH7-B3/GpL16-k0 (=100)
B5 | – | 1.69 | 94.1 % of HeCon Ab | 55.6 % of HeCon Ab | –
B6 | 152 % of GpH7-A5/GpH7-B3/GpL16-k0 (=100) | – | – | – | 25.4 % of GpH7-A5/GpH7-B3/GpL16-k0 (=100)
B7 | – | 1.44 | 96 % of HeCon Ab | 66.8 % of HeCon Ab | –
B8 | – | 1.21 | 97.8 % of HeCon Ab | 81.1 % of HeCon Ab | –
